Reference: paper PMC6424611 (Journal of molecular biology, 2019)
Where no end group is shown, it is not given here. [ ]: non-standard residue; d: D form. The star is where a group is joined. Biotin = O=C1N[C@H]2[C@H](CS[C@H]2CCCCC(=O)*)N1; TTDS = NCCCOCCOCCOCCCNC(=O)CCC(=O)*; pS = N[C@@H](COP(=O)(O)O)C(=O)O

T1: MBP-fused PDZ domain of SNTB1 (human, UniProt Q13884 112-195)
T1 sequence (looked up): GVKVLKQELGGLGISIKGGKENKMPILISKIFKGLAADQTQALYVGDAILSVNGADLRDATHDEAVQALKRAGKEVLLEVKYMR

T2: MBP-fused PDZ domain of MAST2 (human, UniProt Q6P0Q8 1104-1192)
T2 sequence (looked up): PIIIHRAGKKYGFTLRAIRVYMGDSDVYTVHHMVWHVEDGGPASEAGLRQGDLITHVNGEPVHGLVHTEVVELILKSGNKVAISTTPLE

T3: MBP-fused PDZ domain 3 of PDZD7 (human, UniProt Q9H5P4 862-934)
T3 sequence (looked up): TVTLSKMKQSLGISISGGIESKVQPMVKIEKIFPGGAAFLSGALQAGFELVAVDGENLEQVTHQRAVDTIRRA

T4: MBP-fused PDZ domain of SNTG2 (human, UniProt Q9NY99 73-156)
T4 sequence (looked up): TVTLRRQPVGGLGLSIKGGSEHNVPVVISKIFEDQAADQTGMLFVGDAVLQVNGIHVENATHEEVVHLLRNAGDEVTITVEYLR

T5: MBP-fused PDZ domain of MAST1 (human, UniProt Q9Y2H9 967-1055)
T5 sequence (looked up): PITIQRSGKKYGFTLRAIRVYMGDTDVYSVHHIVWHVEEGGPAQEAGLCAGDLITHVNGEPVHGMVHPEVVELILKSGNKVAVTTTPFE

B1: RSK1 683-735 peptide, phosphorylated (peptide, UniProt Q15418 683-735, looked up)
peptide: QSQLSHQDLQLVKGAMAATYSALNSSKPTPQLKPIESSILAQRRVRKLPSTTL
modifications: also: monophosphorylated, site not given here
B2: PDZ domain 2 of MAGI3 (domain or fragment, human, UniProt Q5TCQ9 410-492, looked up)
chain: RASLKKSTMGFGFTIIGGDRPDEFLQVKNVLKDGPAAQDGKIAPGDVIVDINGNCVLGHTHADVVQMFQLVPVNQYVNLTLCR
B3: biotinylated RSK1 725-735 peptide, unphosphorylated (peptide, UniProt Q15418 725-735, looked up)
peptide: {Biotin-TTDS}-RRVRKLPSTTL
B4: biotinylated RSK1 725-735 peptide, phosphorylated at Ser732 (position -3) (peptide, UniProt Q15418 725-735, looked up)
peptide: {Biotin-TTDS}-RRVRKLP[pS]TTL
B5: MBP-fused PDZ domain 1 of PDZRN4 (domain or fragment, human, UniProt Q6ZMN7 224-314, looked up)
chain: TIVLERENDTLGFNIIGGRPNQNNQEGTSTEGIYVSKILENGPADRADGLEIHDKIMEVNGKDLSKATHEEAVEAFRNAKEPIVVQVLRRT
B6: MBP-fused PDZ domain 1 of PARD3B (domain or fragment, human, UniProt Q8TEW8 201-289, looked up)
chain: TRTVEISGEGGPLGIHVVPFFSSLSGRILGLFIRGIEDNSRSKREGLFHENECIVKINNVDLVDKTFAQAQDVFRQAMKSPSVLLHVLP

Experiments:
[1] = target: T1, MBP-fused PDZ domain of SNTB1; assay: fluorescence polarisation
[2] = target: B6; assay: fluorescence polarisation
[3] = target: T2, MBP-fused PDZ domain of MAST2; assay: fluorescence polarisation
[4] = target: MBP-fused PDZ domain of SNX27 (human, UniProt Q96L92 43-136); assay: fluorescence polarisation
[5] = target: T3, MBP-fused PDZ domain 3 of PDZD7; assay: fluorescence polarisation
[6] = target: MBP-fused PDZ domain of HTRA1 (human, UniProt Q92743 365-467); assay: fluorescence polarisation
Sequence of MBP-fused PDZ domain of HTRA1 (Q92743 365-467): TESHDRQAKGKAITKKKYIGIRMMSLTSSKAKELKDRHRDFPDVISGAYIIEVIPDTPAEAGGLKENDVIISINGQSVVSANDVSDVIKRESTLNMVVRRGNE

[7] = target: MBP-fused PDZ domain 2 of GRID2IP (human, UniProt A4D2P6 279-356); assay: fluorescence polarisation
Sequence of MBP-fused PDZ domain 2 of GRID2IP (A4D2P6 279-356): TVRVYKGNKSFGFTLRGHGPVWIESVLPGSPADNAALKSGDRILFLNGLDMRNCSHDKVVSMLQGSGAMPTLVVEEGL

[8] = target: T4, MBP-fused PDZ domain of SNTG2; assay: fluorescence polarisation
[9] = target: T5, MBP-fused PDZ domain of MAST1; assay: fluorescence polarisation
[10] = target: B3; assay: holdup assay
[11] = target: B4; assay: holdup assay
[12] = target: B6; assay: holdup assay
[13] = target: B5; assay: holdup assay
PDZ domain 2 of MAGI3 = target: B2; assay: holdup assay
[14] = target: B6; assay: SPR
[15] = target: B5; assay: SPR

B1
Kd [1]: 4.5 ± 0.3 µM | Kd [2]: 31 ± 3.5 µM | Kd [3]: 48 ± 84 µM | Kd [4]: 32 ± 5 µM | Kd [5]: 46 ± 7 µM | Kd [6]: 33 ± 2 µM | Kd [7]: 85 ± 11 µM | Kd [8]: 4.8 ± 1.7 µM | Kd [9]: 92 ± 12 µM

B2
BI [10]: 0.28 ± 0.03 | BI [11]: 0.28 ± 0.06

B3
Kd [12]: 13.8 µM | Kd [13]: 14.4 µM | Kd (PDZ domain 2 of MAGI3): 40.8 µM | Kd [14]: 4 ± 0.3 µM | Kd [15]: 0.97 ± 0.18 µM

B4
Kd [12]: 35.1 µM | Kd [13]: 12.6 µM | Kd (PDZ domain 2 of MAGI3): 40.8 µM | Kd [14]: 6.1 ± 0.4 µM | Kd [15]: 7.1 ± 0.9 µM

B5
BI [10]: 0.51 ± 0.02 | BI [11]: 0.54 ± 0.03

B6
BI [10]: 0.52 ± 0.05 | BI [11]: 0.31 ± 0.02
